Patent US20140056918A1 (Novo Nordisk, published 2014)
Substitutions are numbered along the chain they refer to.

B1: 7F6A1 (antibody, V domains shown)
VH: DVKLVESGGGLVKPGGSLKLSCAASGFTFSSYVMSWVRQTPEKRLEWVATISSGGSYTYYPDSVKGRFTISRDNAKNTLYLQMSSLKSEDTAMYYCTREGGNSPDYWGQGTTLTVSS
VL: ENVLTQSPAIMSASPGEKVTMTCSVSSSISYMHWYRQKSFTSPQLWIYDTSKLASGVPGRFSGSGSGISYSLTISSMEAEDVATYYCFQGSEYPLTFGAGTKLELKR
notes: Mouse anti-human OSCAR mAb; The heavy chain entry covers only VH-CH1 and the start of the hinge
B2: 16F56 (antibody, V domains shown)
VH: QVQLVQSGAEVKKPGSSVKVSCKASGGTFSNYAISWVRQAPGQGLEWMGRIIPILGIAHNAQKFQDRVTITADKSTSTAYMELSSLRSEDTAVYYCASPSSGKGLPYWFFDLWGRGTLVTVSS
VL: DIQMTQSPSFLSASVGDRVTITCRASQSISSYLNWYQQKPGKAPKLLIYAASSLQSGVPSRFSGSGSGTDFTLTISSLQPEDFATYYCQCGYSTPLTFGGGTKVEIKR
notes: Fully human mAb from HuMab mice; also called 16F56 (Hu); 16F56A2
B3: 16F119 (antibody, V domains shown)
VH: QVQLVQSGAEVKKPGSSVKVSCKVSGGTFSNYAISWVRQAPGQGLEWMGRIIPILGIAAYAQRFRDRVTITADKFTSTVYMELSSLRSEDTAVYYCASGQLGTPYWYFDLWGRGTLVTVSS
VL: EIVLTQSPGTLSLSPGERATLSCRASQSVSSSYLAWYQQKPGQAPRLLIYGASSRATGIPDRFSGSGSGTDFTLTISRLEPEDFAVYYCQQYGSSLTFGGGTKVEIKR
notes: Fully human mAb from HuMab mice; also called 16F119 (Hu); 16F119A5
B4: 7F10A1 (antibody, V domains shown)
VH: QVQLQQSGAELARPGASVKLSCKASGYTFTDNYINWVKQRTGQGLEWIGEIYPGSGNTYYNEKFKGKATLTADKSSSTAYMQLSSLTSEDSAVYFCARSANRYDRGDFDYWGQGTPLTVSS
VL: QILLTQSPAIMSASPGEKVTMTCSASSSVSYMHWYQQKPGSSPKPWIYDTSNLASGFPARFSGSGSGTSYSLIISSMEAEDAATYYCHQRSSYPYTFGGGTKLEIKR
notes: as for B1
B5: 7F14A1 (antibody, V domains shown)
VH: QVQLKESGPGLVAPSQSLSITCSVSGFSLTSYGVHWVRQPPGKGLEWLGVMWAGGSTNYNSALMSRLSISKDNSKSQVFLKMNSLQTDDSAMYYCALQKGYGNYFDYWGQGTTLTVSS
VL: QIVLTQSPAIMSASPGEKVTMTCSASSSVNYMHWYQQKSGTSPKRWIYDTSNLASGVPTRFSGSGSGTSYSLTISSMEAEDAATYYCQQWSSDPLTFGAGTKLELKR
notes: Mouse anti-human OSCAR mAb; also called 7F14A4
B6: 6F6B (antibody, V domains shown)
VH: EVQLQQSGAELVKPGASVKLSCTASGFNIKDTYVHWVKQRPDQGLEWIGRIDPAIGNTKYDPKFRGKATITADSSSNTAYLQLSSLTSEDTAVYYCARLSYGNYGLDYSMDYWGQGTSVTVSS
VL: DIVLTQSPATLSVTPGDSVSLSCRASQSITNNLHWYQQKSHESPRLLIKYASQSISGIPSRFRGSGSGTDFTLSINSVETEDFGVYFCQQSNTWPRTFGGGTKLEIKR
notes: Mouse anti-OSCAR mAb
B7: 6F3A (antibody, V domains shown)
VH: B6 VH
VL: B6 VL
notes: Mouse anti-OSCAR mAb
B8: 7F1A1 (antibody, V domains shown)
VH: QVQLQQSGAELVRPGTSVKVSCKASGYAFTNYMIEWVKKRPGQGLEWIGVINPGSGGTNYNEKFENKATLTADKSSSTAYMQLSSLTSDDSAVYFCARSLDFDGAWFAYWGQGTLVTVSA
VL: DIQMTQSPASLSVSVGETVTITCRASEKIYSNLAWYQQKQGKSPQLLVYAATNLADGVPSRFSGSGSGTQFSLKINSLQPEDFGSYYCQHFWGIPWTFGGGTKLEIKR
notes: as for B1
B9: 7F21A1 (antibody, V domains shown)
VH: QVQLQQSGAELVRPGTSVKVSCRSSGYAFTNYLIEWIKQRPGQGLEWIGVITPGSGGTNYNENFKDKATLTADKSSNTAYMQLTSLTSDDSAVYFCARSFDYDGAWFAYWGQGTLVTVSA
VL: B8 VL with S77N, P80S, I94T
notes: as for B1

Target: T1, Human OSCAR (osteoclast-associated receptor), full length, on cells (human)
T1 chain: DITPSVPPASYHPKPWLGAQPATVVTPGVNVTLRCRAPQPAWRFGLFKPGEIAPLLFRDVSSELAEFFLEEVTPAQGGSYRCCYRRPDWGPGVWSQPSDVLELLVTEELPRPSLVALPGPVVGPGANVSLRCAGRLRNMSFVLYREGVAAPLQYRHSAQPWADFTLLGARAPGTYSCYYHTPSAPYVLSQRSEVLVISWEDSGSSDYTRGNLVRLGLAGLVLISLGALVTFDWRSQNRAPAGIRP
Assay: cell-based or functional assay

Row | IC50 (IL-8), ColI-induced IL-8 release from moDC, Donor 3 | IC50 (IL-8), ColI-induced IL-8 release from moDC, Donor 5 | IC50 (IL-8), ColI-induced IL-8 release from moDC, Donor 6 | IC50 (IL-8), ColI-induced IL-8 release from moDC, Donor 4 | IC50 (IL-8), ColI-induced IL-8 release from moDC, Donor 1 | IC50 (IL-8), ColI-induced IL-8 release from moDC, Donor 2 | Binder
1 | 0.91 nM | 2.49 nM | 1.28 nM | – | – | – | B1
2 | – | 0.1 nM | 0.21 nM | 0.06 nM | – | – | B2
3 | – | 0.46 nM | 1.12 nM | 0.02 nM | – | – | B3
4 | 1.59 nM | – | – | 2.06 nM | 0.49 nM | – | B4
5 | 0.62 nM | – | – | – | 0.23 nM | – | B5
6 | – | > 20 nM | 6.56 nM | 0.86 nM | – | – | B6
7 | – | > 20 nM | 8.06 nM | 0.69 nM | – | – | B7
8 | 0.1 nM | – | – | 0.03 nM | < 0.1 nM | < 0.1 nM | B8
9 | 0.64 nM | – | – | 0.11 nM | – | 0.02 nM | B9

Target: T1, Human OSCAR (osteoclast-associated …)
Assay: flow cytometry on primary human monocytes, donor #1
Procedure: (§1) Cell number and viability were determined using a Cedex cell counter. The cells were diluted in washing buffer (1×PBS (—Ca²⁺/—Mg²⁺)+5% FBS+0.1% Na-azide) to […]. In the case of monocytes, the cells were further blocked by adding 10 μl of a hFcR blocker (Miltenyi, #130-059-901) and incubated for 10 minutes at 4° C. 50 μl of cells (50.000 cells/well) were seeded into 96 well round-bottomed microtiter plates. Hybridoma supernatants or purified antibodies (in serial dilutions) were added to the cells at 50 μl/well. The isotype-matched purified irrelevant human mAb or mouse mAb served as negative controls (mouse IgG1, BD, #553452; mouse IgG2a, BD, #557353; mouse IgG2b, BD, #557352). […] Cells were washed in PBS, re-suspended in fixation buffer (1×PBS (—Ca²⁺/—Mg²⁺), pH7.2+1% formalin (B&B, #LAB96751.0500) and analysed by FACS flow cytometer. EC₅₀ values were calculated using a GraphPad Prism 5 software.

Row | EC50 | Binder
10 | 3.48 nM | B1
11 | 1.2 nM | B4
12 | 2.47 nM | B5
13 | 1.21 nM | B8
14 | 9.48 nM | B9

Target: T1, Human OSCAR (osteoclast-associated …)
Assay: flow cytometry on primary human monocytes, donor #2
Procedure: as §1

Row | EC50 | Binder
15 | 0.14 nM | B1
16 | 0.12 nM | B4
17 | 0.55 nM | B5
18 | 0.12 nM | B8
19 | 0.01 nM | B9

Target: T2, Human OSCAR-ECD (recombinant extracellular domain of human OSCAR) (human, UniProt Q8IYS5 19-218)
T2 construct: also called OSACAR-ECD
T2 chain: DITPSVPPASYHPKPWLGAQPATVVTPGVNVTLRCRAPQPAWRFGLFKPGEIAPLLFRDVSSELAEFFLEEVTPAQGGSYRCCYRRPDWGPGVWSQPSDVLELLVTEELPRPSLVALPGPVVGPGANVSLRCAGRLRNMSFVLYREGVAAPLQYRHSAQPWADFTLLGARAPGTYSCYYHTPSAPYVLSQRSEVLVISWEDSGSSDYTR
Assay: SPR competition, 50 nM OSCAR-ECD premixed with mAb, over immobilised collagen I
Procedure: (§2) The experiment was performed using a Biacore T 100 instrument (GE Healthcare). Human collagen 1 (Sigma, # C5483) and human collagen 2 (Millipore #CC052) were diluted with 10 mM NaOAc, pH 4.5 and immobilized on a Biacore CM3 sensor chip (GE Healthcare) using amine coupling chemistry (GE Healthcare). Immobilization was performed according to the standard procedure, but at 5° C. in order to prevent aggregation collagens, with immobilized levels of ca 250 RU on flow cells (FC) 2 and 4. A blank immobilization was performed on FC 1 & 3, which were used as reference cells. HBS-EP buffer (10 mM HEPES, 150 mM NaCl, 3 mM EDTA, 0.05% Polysorbat P20, pH7.4) was used as running buffer for the immobilization. Buffer containing HBS-EP/+0.1% BSA was used for the competition assay. The competition experiment was performed at 5° C. at a flow rate of 50 μl/min. […] OSCAR was mixed with various concentrations of anti-OSCAR antibodies ranging from 0-10 μg/ml prior to injection. Binding curves were measured for 360 s followed by 240 s of dissociation. The chip surface was regenerated for 2×20 s with 10 mM glycine, pH 2.0 between assays.
(§3) Human collagen I and II were immobilized to the surface of a Biacore sensor chip by amine coupling. […] It was hypothesized that an antibody inhibiting binding of OSCAR to collagen would lead to a concentration-dependent loss of signal, whereas a non-inhibiting antibody would enhance the signal due to the increased mass of the OSCAR-antibody complex.

Row | binding of OSCAR-ECD to collagen I with 10 µg/mL mAb | Binder
20 | 19.2 | B1
21 | -3.2 | B2
22 | -3.4 | B3
23 | 55 | B4
24 | 56.3 | B5
25 | 1.7 | B6
26 | 9.5 | B7
27 | 145 | B8
28 | 144 | B9

Target: T2, Human OSCAR-ECD (recombinant …)
Assay: SPR (Biacore T100), mAb coupled or captured on chip, OSCAR-ECD injected, 1:1 fit
Procedure: The kinetic parameters (kₐ, kd and KD) for the interaction were calculated using a 1:1 interaction Langmuir fitting model.

Row | Kd | Binder
29 | 2.7 nM | B1
30 | 0.3 nM | B2
31 | 0.5 nM | B3
32 | 18 nM | B4
33 | 4.5 nM | B5
34 | 2.7 nM | B8
35 | 18 nM | B9

Target: T2, Human OSCAR-ECD (recombinant …)
Assay: SPR competition, 50 nM OSCAR-ECD premixed with mAb, over immobilised collagen II
Design: unit not given here
Procedure: as §2, §3

Row | binding of OSCAR-ECD to collagen II with 10 µg/mL mAb | Binder
36 | 19.3 | B1
37 | -1.9 | B2
38 | -1.5 | B3
39 | 102 | B4
40 | 83.6 | B5
41 | 1 | B6
42 | 13.8 | B7
43 | 335 | B8
44 | 319 | B9
